Results published in patent US20260014232A1, “Pharmaceutical Composition of GLP-1 and GIP Receptor Dual Agonist and Use Thereof” (Jiangsu Hengrui Pharmaceuticals Co., Ltd., priority 2021, published 2026).
Starred links: 1 amine or outer side, 2 acyl side, 3 side chain; linkers in the order of their positions; H or OH if unused. Non-standard residues stand in square brackets, D forms with d. Groups on a side chain read outwards from the residue. No end group written: not given here. *: point of attachment. Arachidoyl = CCCCCCCCCCCCCCCCCCCC(=O)*; γGlu = O=C(O)[C@H](CCC(=O)[*:2])N[*:1]; AEEA = NCCOCCOCC(=O)O; Aib = CC(C)(N)C(=O)O

Experiments:
[1] = biological target: T1, human glucose-dependent insulinotropic polypeptide receptor (GIPR) (human, UniProt P48546 22-466); assay: cell-based or functional assay
T1 sequence (looked up): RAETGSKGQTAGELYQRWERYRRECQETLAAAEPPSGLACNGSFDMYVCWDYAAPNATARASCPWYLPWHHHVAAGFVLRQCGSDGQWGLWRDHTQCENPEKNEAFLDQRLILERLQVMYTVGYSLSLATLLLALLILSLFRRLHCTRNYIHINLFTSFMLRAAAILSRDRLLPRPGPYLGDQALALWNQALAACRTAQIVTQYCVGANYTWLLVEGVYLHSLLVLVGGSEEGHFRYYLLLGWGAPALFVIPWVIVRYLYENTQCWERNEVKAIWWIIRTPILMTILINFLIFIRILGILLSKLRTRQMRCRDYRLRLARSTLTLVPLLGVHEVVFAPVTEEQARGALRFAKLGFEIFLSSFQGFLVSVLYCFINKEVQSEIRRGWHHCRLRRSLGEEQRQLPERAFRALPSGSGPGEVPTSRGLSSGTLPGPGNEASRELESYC

[2] = biological target: human glucagon-like peptide-1 receptor (GLP-1R) (human, UniProt P43220 24-463); assay: cell-based or functional assay

B1: compound 10# (peptide)
peptide: Y[Aib]EGTFTSDYSIYLEK([AEEA-AEEA-γGlu-Arachidoyl])IAAQEFINWLIAGGPSSGAPPPS-NH2
modifications: N-terminus assumed
SMILES: CCCCCCCCCCCCCCCCCCCC(=O)N[C@@H](CCC(=O)NCCOCCOCC(=O)NCCOCCOCC(=O)NCCCC[C@H](NC(=O)[C@H](CCC(=O)O)NC(=O)[C@H](CC(C)C)NC(=O)[C@H](Cc1ccc(O)cc1)NC(=O)[C@@H](NC(=O)[C@H](CO)NC(=O)[C@H](Cc1ccc(O)cc1)NC(=O)[C@H](CC(=O)O)NC(=O)[C@H](CO)NC(=O)[C@@H](NC(=O)[C@H](Cc1ccccc1)NC(=O)[C@@H](NC(=O)CNC(=O)[C@H](CCC(=O)O)NC(=O)C(C)(C)NC(=O)[C@@H](N)Cc1ccc(O)cc1)[C@@H](C)O)[C@@H](C)O)[C@@H](C)CC)C(=O)N[C@H](C(=O)N[C@@H](C)C(=O)N[C@@H](C)C(=O)N[C@@H](CCC(N)=O)C(=O)N[C@@H](CCC(=O)O)C(=O)N[C@@H](Cc1ccccc1)C(=O)N[C@H](C(=O)N[C@@H](CC(N)=O)C(=O)N[C@@H](Cc1c[nH]c2ccccc12)C(=O)N[C@@H](CC(C)C)C(=O)N[C@H](C(=O)N[C@@H](C)C(=O)NCC(=O)NCC(=O)N1CCC[C@H]1C(=O)N[C@@H](CO)C(=O)N[C@@H](CO)C(=O)NCC(=O)N[C@@H](C)C(=O)N1CCC[C@H]1C(=O)N1CCC[C@H]1C(=O)N1CCC[C@H]1C(=O)N[C@@H](CO)C(N)=O)[C@@H](C)CC)[C@@H](C)CC)[C@@H](C)CC)C(=O)O
- Activity against human GIPR (EC50 nM); cAMP HTRF, CHO-K1 cells overexpressing hGIP receptor [1]: 0.056 nM
- Activity against human GLP-1R (EC50 nM); cAMP HTRF, CHO-K1/GLP-1R/CRE-luc cells [2]: 0.065 nM

B2: compound 13# (peptide)
peptide: Y[Aib]EGTFTSDYSIYK([AEEA-AEEA-γGlu-Arachidoyl])ERIAAQEFVNWLIAGGPSSGAPPPS-NH2
modifications: N-terminus assumed
SMILES: CCCCCCCCCCCCCCCCCCCC(=O)N[C@@H](CCC(=O)NCCOCCOCC(=O)NCCOCCOCC(=O)NCCCC[C@H](NC(=O)[C@H](Cc1ccc(O)cc1)NC(=O)[C@@H](NC(=O)[C@H](CO)NC(=O)[C@H](Cc1ccc(O)cc1)NC(=O)[C@H](CC(=O)O)NC(=O)[C@H](CO)NC(=O)[C@@H](NC(=O)[C@H](Cc1ccccc1)NC(=O)[C@@H](NC(=O)CNC(=O)[C@H](CCC(=O)O)NC(=O)C(C)(C)NC(=O)[C@@H](N)Cc1ccc(O)cc1)[C@@H](C)O)[C@@H](C)O)[C@@H](C)CC)C(=O)N[C@@H](CCC(=O)O)C(=O)N[C@@H](CCCNC(=N)N)C(=O)N[C@H](C(=O)N[C@@H](C)C(=O)N[C@@H](C)C(=O)N[C@@H](CCC(N)=O)C(=O)N[C@@H](CCC(=O)O)C(=O)N[C@@H](Cc1ccccc1)C(=O)N[C@H](C(=O)N[C@@H](CC(N)=O)C(=O)N[C@@H](Cc1c[nH]c2ccccc12)C(=O)N[C@@H](CC(C)C)C(=O)N[C@H](C(=O)N[C@@H](C)C(=O)NCC(=O)NCC(=O)N1CCC[C@H]1C(=O)N[C@@H](CO)C(=O)N[C@@H](CO)C(=O)NCC(=O)N[C@@H](C)C(=O)N1CCC[C@H]1C(=O)N1CCC[C@H]1C(=O)N1CCC[C@H]1C(=O)N[C@@H](CO)C(N)=O)[C@@H](C)CC)C(C)C)[C@@H](C)CC)C(=O)O
- Activity against human GIPR (EC50 nM); cAMP HTRF, CHO-K1 cells overexpressing hGIP receptor [1]: 0.13 nM
- Activity against human GLP-1R (EC50 nM); cAMP HTRF, CHO-K1/GLP-1R/CRE-luc cells [2]: 0.017 nM

B3: compound 15# (peptide)
peptide: Y[Aib]EGTFTSDYSIYK([AEEA-AEEA-γGlu-Arachidoyl])ERIAAQEFINWLIAGGPSSGAPPPS-NH2
modifications: N-terminus assumed
SMILES: CCCCCCCCCCCCCCCCCCCC(=O)N[C@@H](CCC(=O)NCCOCCOCC(=O)NCCOCCOCC(=O)NCCCC[C@H](NC(=O)[C@H](Cc1ccc(O)cc1)NC(=O)[C@@H](NC(=O)[C@H](CO)NC(=O)[C@H](Cc1ccc(O)cc1)NC(=O)[C@H](CC(=O)O)NC(=O)[C@H](CO)NC(=O)[C@@H](NC(=O)[C@H](Cc1ccccc1)NC(=O)[C@@H](NC(=O)CNC(=O)[C@H](CCC(=O)O)NC(=O)C(C)(C)NC(=O)[C@@H](N)Cc1ccc(O)cc1)[C@@H](C)O)[C@@H](C)O)[C@@H](C)CC)C(=O)N[C@@H](CCC(=O)O)C(=O)N[C@@H](CCCNC(=N)N)C(=O)N[C@H](C(=O)N[C@@H](C)C(=O)N[C@@H](C)C(=O)N[C@@H](CCC(N)=O)C(=O)N[C@@H](CCC(=O)O)C(=O)N[C@@H](Cc1ccccc1)C(=O)N[C@H](C(=O)N[C@@H](CC(N)=O)C(=O)N[C@@H](Cc1c[nH]c2ccccc12)C(=O)N[C@@H](CC(C)C)C(=O)N[C@H](C(=O)N[C@@H](C)C(=O)NCC(=O)NCC(=O)N1CCC[C@H]1C(=O)N[C@@H](CO)C(=O)N[C@@H](CO)C(=O)NCC(=O)N[C@@H](C)C(=O)N1CCC[C@H]1C(=O)N1CCC[C@H]1C(=O)N1CCC[C@H]1C(=O)N[C@@H](CO)C(N)=O)[C@@H](C)CC)[C@@H](C)CC)[C@@H](C)CC)C(=O)O
- Activity against human GIPR (EC50 nM); cAMP HTRF, CHO-K1 cells overexpressing hGIP receptor [1]: 0.23 nM
- Activity against human GLP-1R (EC50 nM); cAMP HTRF, CHO-K1/GLP-1R/CRE-luc cells [2]: 0.015 nM

Binder: Y[Aib]EGTFTSDYSIYLEK([AEEA-AEEA-γGlu-Arachidoyl])IAAQEFVNWLIAGGPSSGAPPPS-NH2 [compound 9#]
- Activity against human GIPR (EC50 nM); cAMP HTRF, CHO-K1 cells overexpressing hGIP receptor [1]: 0.04 nM
- Activity against human GLP-1R (EC50 nM); cAMP HTRF, CHO-K1/GLP-1R/CRE-luc cells [2]: 0.049 nM

B4: compound 14# (peptide)
peptide: Y[Aib]EGTFTSDYSIYK([AEEA-AEEA-γGlu-Arachidoyl])EKIAAQEFINWLIAGGPSSGAPPPS-NH2
modifications: N-terminus assumed
SMILES: CCCCCCCCCCCCCCCCCCCC(=O)N[C@@H](CCC(=O)NCCOCCOCC(=O)NCCOCCOCC(=O)NCCCC[C@H](NC(=O)[C@H](Cc1ccc(O)cc1)NC(=O)[C@@H](NC(=O)[C@H](CO)NC(=O)[C@H](Cc1ccc(O)cc1)NC(=O)[C@H](CC(=O)O)NC(=O)[C@H](CO)NC(=O)[C@@H](NC(=O)[C@H](Cc1ccccc1)NC(=O)[C@@H](NC(=O)CNC(=O)[C@H](CCC(=O)O)NC(=O)C(C)(C)NC(=O)[C@@H](N)Cc1ccc(O)cc1)[C@@H](C)O)[C@@H](C)O)[C@@H](C)CC)C(=O)N[C@@H](CCC(=O)O)C(=O)N[C@@H](CCCCN)C(=O)N[C@H](C(=O)N[C@@H](C)C(=O)N[C@@H](C)C(=O)N[C@@H](CCC(N)=O)C(=O)N[C@@H](CCC(=O)O)C(=O)N[C@@H](Cc1ccccc1)C(=O)N[C@H](C(=O)N[C@@H](CC(N)=O)C(=O)N[C@@H](Cc1c[nH]c2ccccc12)C(=O)N[C@@H](CC(C)C)C(=O)N[C@H](C(=O)N[C@@H](C)C(=O)NCC(=O)NCC(=O)N1CCC[C@H]1C(=O)N[C@@H](CO)C(=O)N[C@@H](CO)C(=O)NCC(=O)N[C@@H](C)C(=O)N1CCC[C@H]1C(=O)N1CCC[C@H]1C(=O)N1CCC[C@H]1C(=O)N[C@@H](CO)C(N)=O)[C@@H](C)CC)[C@@H](C)CC)[C@@H](C)CC)C(=O)O
- Activity against human GIPR (EC50 nM); cAMP HTRF, CHO-K1 cells overexpressing hGIP receptor [1]: 0.13 nM
- Activity against human GLP-1R (EC50 nM); cAMP HTRF, CHO-K1/GLP-1R/CRE-luc cells [2]: 0.013 nM

B5: compound 12# (peptide)
peptide: Y[Aib]EGTFTSDYSIYK([AEEA-AEEA-γGlu-Arachidoyl])EKIAAQEFVNWLIAGGPSSGAPPPS-NH2
modifications: N-terminus assumed
SMILES: CCCCCCCCCCCCCCCCCCCC(=O)N[C@@H](CCC(=O)NCCOCCOCC(=O)NCCOCCOCC(=O)NCCCC[C@H](NC(=O)[C@H](Cc1ccc(O)cc1)NC(=O)[C@@H](NC(=O)[C@H](CO)NC(=O)[C@H](Cc1ccc(O)cc1)NC(=O)[C@H](CC(=O)O)NC(=O)[C@H](CO)NC(=O)[C@@H](NC(=O)[C@H](Cc1ccccc1)NC(=O)[C@@H](NC(=O)CNC(=O)[C@H](CCC(=O)O)NC(=O)C(C)(C)NC(=O)[C@@H](N)Cc1ccc(O)cc1)[C@@H](C)O)[C@@H](C)O)[C@@H](C)CC)C(=O)N[C@@H](CCC(=O)O)C(=O)N[C@@H](CCCCN)C(=O)N[C@H](C(=O)N[C@@H](C)C(=O)N[C@@H](C)C(=O)N[C@@H](CCC(N)=O)C(=O)N[C@@H](CCC(=O)O)C(=O)N[C@@H](Cc1ccccc1)C(=O)N[C@H](C(=O)N[C@@H](CC(N)=O)C(=O)N[C@@H](Cc1c[nH]c2ccccc12)C(=O)N[C@@H](CC(C)C)C(=O)N[C@H](C(=O)N[C@@H](C)C(=O)NCC(=O)NCC(=O)N1CCC[C@H]1C(=O)N[C@@H](CO)C(=O)N[C@@H](CO)C(=O)NCC(=O)N[C@@H](C)C(=O)N1CCC[C@H]1C(=O)N1CCC[C@H]1C(=O)N1CCC[C@H]1C(=O)N[C@@H](CO)C(N)=O)[C@@H](C)CC)C(C)C)[C@@H](C)CC)C(=O)O
- Activity against human GIPR (EC50 nM); cAMP HTRF, CHO-K1 cells overexpressing hGIP receptor [1]: 0.17 nM
- Activity against human GLP-1R (EC50 nM); cAMP HTRF, CHO-K1/GLP-1R/CRE-luc cells [2]: 0.03 nM
